Here are results for six molecules from US9206246B2, “Heparin/heparan sulfate-dependent inhibitors of activated protein C and uses thereof in treating hemophilic disorders” (Academia Sinica, priority 2012, dated 2015).

Test [1] is described as follows: Heparin binding assay (HiTrap Heparin column, NaCl gradient). The settings on record: data not shown. On the procedure:
A: 70 μg of DrKIn-I in 0.1 ml equilibrating buffer (20 mM Tris-HCl, pH 8.0) was applied to a 5 ml HiTrap Heparin column and eluted with a 50 ml gradient from 0.0-1.0 M NaCl. The salt concentration corresponding to the elution peak was determined to be 0.95 M. B, Binding of DrKIn-I (0.78, 1.56, 2.34, 3.13, 4.68 and 6.25 nM) to immobilized APC was assessed in buffer containing 10 mM HEPES, 0.15 M NaCl, 3 mM EDTA and 0.05% P20 at a flow rate of 60 μl/min at 25° C. […] The thin lines represent the global fit to the response data. […] Results shown are means±SD of three experiments. Representative binding traces are shown.

Test [2] concerns the target T1, human activated protein C (Homo sapiens, UniProt P04070).
T1 construct: purchased Haematologic Technologies
As to the kind of experiment: Inhibition of APC amidolytic activity (Spectrozyme PCa chromogenic substrate). In kind it is biochemical. On the procedure: B: Dose-response curves of APC (10 nM) inhibition by DrKIn-I in the absence (◯) and presence (●) of 0.1 U/ml heparin. C: To determine the minimum concentration of heparin required for the potentiation APC inhibition, the activity of APC (20 nM) was measured after the addition of DrKIn-I (20 nM) and varying concentrations of heparin (0-1000 mU/ml). D: To assess the ability of heparan sulfate and the minimum length of heparan sulfate required to potentiate DrKIn-I-mediated APC inhibition, the amidolytic activity of APC was determined in the presence of DrKIn-I (20 nM) and different lengths of heparan sulfate chains (10 μg/ml each). E, Time course of FVa inactivation by APC (1 nM) was assessed in the absence (●) or presence (▪) of 5 nM DrKIn-I, or in the presence of 5 nM DrKIn-I supplemented with 0.1 U/ml heparin (▴), as described in “Materials and methods”. F, The effect of DrKIn-I (0-250 nM) and/or heparin (0.1 U/ml) on APC-mediated FVa inactivation was determined after 10 minutes of incubation at 37° C. with APC (5 nM). Results shown are means±SD of three experiments.
All inhibition assays were performed in 96-wells microtiter plates in 25 mM Tris-HCl (pH 7.4), 150 mM NaCl, 2.5 mM CaCl2 and 5 mg/ml BSA. For comparison between DrKIn-I and DrKIn-II, the amidolytic activity of 10 nM APC, with or without 0.1 U/ml heparin, was assayed in the presence or absence of equal molar concentrations of DrKIn-I or DrKIn-II. Immediately after the addition of APC, Spectrozyme PCa was added and the rates of p-nitroaniline release were monitored at 405 nm for 10 minutes at 37° C. For dose response curves, APC was mixed with different concentrations of DrKIn-I in the presence or absence of heparin. The final concentrations were as follows: APC (10 nM), heparin (0.1 U/ml) and DrKIn-I (0-100 nM in the presence of heparin and 0-12800 nM in the absence of heparin). Dose-response curves were fitted using GraphPad Prism (GraphPad Software). In other inhibition experiments, varying concentrations of heparin ([…]) or different lengths of heparan sulfate chains (10 μg/ml) were added to equimolar concentrations of APC and DrKIn-I (20 nM each). In all the inhibition experiments, Spectrozyme PCa was added to a final concentration of 0.2 mM. Changes in absorbance were measured using SpectraMax M2^e Microplate Reader (Molecular Devices).

For test [3], the target named is T2, APC (Homo sapiens, UniProt P04070). As to the kind of experiment: APC inhibition by recombinant DrKIn-I wild type and mutants (S-2366 chromogenic substrate). To be noted: APC 20 nM, S-2366 0.4 mM. In kind it is biochemical. An excerpt:
A: amino acid alignment of the C-terminal regions of the wild-type DrKIn-I peptide and three mutants, which were generated by either deleting or mutating (alanine substitution; denoted by bold letters) one or both of the C-terminus heparin binding motifs. Underlined amino acids are the putative heparin binding motifs. B: SDS-PAGE analysis of the wild-type and mutant DrKIn-I peptides. Wild-type: SEQ ID NO:3. Mutant 1: SEQ ID NO:4. Mutant 2: SEQ ID NO:5. Mutant 3: SEQ ID NO:6. C-D: Inhibitory effect of DrKIn-I wild type (●), mutant 1 (▴), mutant 2 (▾) and mutant 3 (▪) on APC (20 nM) in the presence (C) or absence (D) of heparan sulfate (10 μg/ml). Activity of APC without the addition of inhibitors was considered as 100%.
The wild-type DrKIn-I and the mutants at various concentrations were mixed with APC (20 nM) in the presence of heparin or heparan sulfate (10 μg/ml). After 3 minutes of incubation, a chromogenic substrate S-2366 (0.4 mM) was added and the rate of p-nitroaniline release was monitored at 405 nm for 10 minutes at 37° C. […] On the other hand, Mutants 1 and 2 inhibit APC in the presence of heparin.
Target sequence in this assay (P04070 212-450 limits assumed): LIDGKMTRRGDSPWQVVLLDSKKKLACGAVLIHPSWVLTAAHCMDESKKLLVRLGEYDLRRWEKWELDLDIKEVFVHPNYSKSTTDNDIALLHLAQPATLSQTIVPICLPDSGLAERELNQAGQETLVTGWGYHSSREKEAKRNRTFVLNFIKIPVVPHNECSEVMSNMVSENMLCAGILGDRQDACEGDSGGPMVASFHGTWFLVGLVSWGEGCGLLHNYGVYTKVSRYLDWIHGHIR
Target sequence in this assay (P04070 43-197 limits assumed): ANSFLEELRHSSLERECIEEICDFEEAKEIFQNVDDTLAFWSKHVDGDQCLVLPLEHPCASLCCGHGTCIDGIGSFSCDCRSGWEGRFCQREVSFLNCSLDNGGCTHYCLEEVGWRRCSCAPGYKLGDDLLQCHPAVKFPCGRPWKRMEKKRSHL

For a further test, the system named is plasmin. Put plainly: Euglobulin clot lysis assay. The test is classed as biochemical.
Test [4] deals with T2, APC. The settings on record: in the absence of heparin; cited from earlier work.
Target sequence in this assay (P04070 212-461 limits assumed): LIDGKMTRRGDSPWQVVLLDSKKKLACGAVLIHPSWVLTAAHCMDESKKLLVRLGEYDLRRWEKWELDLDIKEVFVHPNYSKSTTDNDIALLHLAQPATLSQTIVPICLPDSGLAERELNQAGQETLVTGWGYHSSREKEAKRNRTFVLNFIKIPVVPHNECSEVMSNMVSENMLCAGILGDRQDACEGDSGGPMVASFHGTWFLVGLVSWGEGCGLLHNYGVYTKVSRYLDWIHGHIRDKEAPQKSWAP
Target sequence in this assay (P04070 43-197 limits assumed): as the sequence (P04070 43-197 limits assumed) above

T1 sequence (P04070 212-450 limits assumed): as the sequence (P04070 212-450 limits assumed) above
T1 sequence (P04070 43-197 limits assumed): as the sequence (P04070 43-197 limits assumed) above

In the case of “DrKIn-II (HDRPTFCNLAPESGRCRAHLRRIYYNLESNKCEVFFYGGCGGNDNNFSTWDECRHTCVGK)”, in test [1], the “affinity towards heparin column” value was “no affinity towards heparin column”. Further, in test [2] (10 nM inhibitor, 10 nM APC, no heparin), the “inhibitory activity against APC in the absence of heparin” value was “little inhibitory activity against APC”. Moreover, in test [2] (equimolar inhibitor and APC (10 nM each), 0.1 U/ml heparin, Spectrozyme PCa 0.2 mM), the “decrease of APC activity (inhibition of APC amidolytic activity)” value was ~20%. Further, the “inhibitory activity against APC” value in test [2] (summary statement in discussion) is given as “no inhibitory activity against APC”.

With “Mutant 1: Recombinant DrKIn-I mutant R50A/K51A/K52A lacking one of the two heparin binding sites (CGGNDNNFETAAACRQTCGAPRKGRPT)”, the “APC inhibition in the presence of heparin” value with APC [3] is “inhibit APC”.

“Mutant 2: Recombinant DrKIn-I deletion mutant Δ60-66 lacking one of the two heparin binding sites (CGGNDNNFETRKKCRQTCGA)”: the “APC inhibition in the presence of heparin” value with APC [3] is listed as “inhibit APC”.

On to aprotinin [reference compound], for which the entries for the “prolongation of euglobulin clot lysis time” value in the test on plasmin (20 nM inhibitor) and with plasmin (100 nM inhibitor) were ~9 h and “more than 16 hours”, respectively.

With heparin [reference compound], in test [2] (heparin alone 0.1 U/ml, regardless of the type of substrate (Spectrozyme PCa or FVa)), the “effect of heparin alone on APC activity” value is reported as “did not alter the activity of APC”.

B1: protein C inhibitor: plasma APC inhibitor belonging to the serpin family (protein, UniProt P05154 26-406, looked up)
Plasma serine protease …: EMKKRVEDLHVGATVAPSSRRDFTFDLYRALASAAPSQSIFFSPVSISMSLAMLSLGAGSSTKMQILEGLGLNLQKSSEKELHRGFQQLLQELNQPRDGFQLSLGNALFTDLVVDLQDTFVSAMKTLYLADTFPTNFRDSAGAMKQINDYVAKQTKGKIVDLLKNLDSNAVVIMVNYIFFKAKWETSFNHKGTQEQDFYVTSETVVRVPMMSREDQYHYLLDRNLSCRVVGVPYQGNATALFILPSEGKMQQVENGLSEKTLRKWLKMFKKRQLELYLPKFSIEGSYQLEKVLPSLGISNVFTSHADLSGISNHSNIQVSEMVHKAVVEVDESGTRAAAATGTIFTFRSARLNSQRLVFNRPFLMFIVDNNILFLGKVNRP
On to B1, for which the “second order rate constant of APC inhibition” value with APC [4] was 2500 M⁻¹ s⁻¹.
